According to US11155643B2, “Glucan kinases and methods for processing starch using the same” (University of Kentucky Research Foundation, priority 2017, dated 2021):

Tests used:
[1] = target: T1, Cyanidioschyzon merolae Cm-GWD DUF domain (CmGWD DUF, amino acids 345-469; full length Cm-GWD SEQ ID NO: 2) (Cyanidioschyzon merolae, UniProt M1VD00); test: differential scanning fluorimetry (DSF)-based thermal shift assay, oligosaccharide binding
T1 construct: recombinant, purified
T1 sequence (M1VD00 345-469): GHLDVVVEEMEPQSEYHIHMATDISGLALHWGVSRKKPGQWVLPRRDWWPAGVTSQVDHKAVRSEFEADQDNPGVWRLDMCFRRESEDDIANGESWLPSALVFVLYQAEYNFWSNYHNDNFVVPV
Method: FIGS. 5A-C show graphs and images illustrating expression and thermal shift of various domains of the Cm-GWD. (A) is an image showing the expression of the Cm-GWD DUF domain constructs with varying N- and C-termini. (B) is an image showing the expression of individual N-terminal domains of Cm-GWD.
To characterize the enzymes' structure, the architecture of the dikinases was first analyzed. The sequences of the dikinases were analyzed using bioinformatic tools. The dikinase primary sequences from multiple species were analyzed to predict sequence conservation, secondary structure, regions of disorder, and regions of hydrophobicity in order to define the optimal constructs for recombinant protein expression of Cm-GWD. At-GWD and PWD have been reported to have cTP, one or two CBM domains, and a dikinase domain (FIG. 4). […]
The binding of purified proteins to oligosaccharides was measured using a differential scanning fluorimetry (DSF)-based thermal shift assay. […] As a proof of principle, the binding of the Cm-GWD DUF to the oligosaccharide maltohexaose and to maltose was measured, as a negative control. […] The change in Tm was monitored with increasing concentration of oligosaccharide (FIG. 5C). […]

[2] = cellulose phosphorylation assay (33P-β-ATP radio-label incorporation into cellulose); assay type: biochemical; conditions: FIG. 11C, 11D
Method: Next, it was tested whether phosphorylation could be directed towards cellulose, the most abundant polymer on earth, by building chimeras comprising cellulose-binding CBMs. Both the CBM30 and CBM44 were chosen from the cellulase CelJ of the thermophilic, gram-positive bacterium Clostridium thermocellum, which bind cellulose with high affinity. The engineered protein containing CtCBM30 and CtCBM44 was purified. The starch-phosphorylation assay was modified to develop an assay for measure phosphorylation of cellulose, which was obtained from Sigma-Avicel PH-101. To measure dikinase activity, the cellulose was incubated with the engineered chimeric dikinase in question along with ^33P-β-ATP, the ^33P-β-ATP and enzyme were washed out, and radio-label incorporation into the cellulose was measured.

[3] = glucose release from native starch treated with combinations of amylases, dikinase and phosphatase; assay type: biochemical, Arabidopsis; conditions: BAM3, ISA3; 25° C., 60 minutes; FIG. 7
Method: FIG. 7 includes a plot showing the glucose released for native Arabidopsis starch that was incubated at 25° C. for 60 minutes with combinations of amylases (BAM+ISA), dikinase (At-GWD), or phosphatase (At-SEX4), undigested starch was pelleted with a high-speed spin, the supernatant sugars were hydrolyzed via acid hydrolysis and glucose content was measured.
To observe how GWDs can be utilized to enhance starch utilization, native Arabidopsis starch was first treated with combinations of BAM3, ISA3, St-GWD, and At-SEX4. a high-speed spin was performed to remove the undigested starch, any remaining oligo-saccharides were hydrolyzed, and glucose released into the supernatant was measured (FIG. 7). Glucose was only released upon addition of amylases.
Native Arabidopsis starch was treated with combinations of BAM3, ISA3, StGWD, and AtSEX4, performed a high-speed spin to remove the undigested starch, hydrolyzed any remaining oligo-saccharides, and measured glucose released into the supernatant (FIG. 7). Glucose was only released upon addition of amylases, as expected.

[4] = stability of purified, concentrated protein on storage; assay type: physicochemical; conditions: 4° C., concentrated to 18 mg/ml
Method: In addition, these constructs were purified using a 3-step purification scheme to sufficient purity for enzymatic assays (FIGS. 9B,D & 10A). Constructs that express each of the individual domains were identified, as well as constructs just lacking the cTP. Expression yields for these constructs ranged from 2-65 mg/1 L of E. coli using a 3-step purification. One of the most promising St-GWD constructs allowed the instant inventors to purify 60-65 mg of >95% pure St-GWD per liter of E. coli using a 3-step purification protocol (FIGS. 10A & 10B). Importantly, the purified protein was concentrated to 18 mg/ml and the protein was stable at 4° C. for >1 WEEK.

Which Kd ([1]; change in Tm with increasing concentration of oligosaccharide, apparent dissociation constant) does the source give for `OC[C@H]1O[C@H](O[C@H]2[C@H](O)[C@@H](O)[C@@H](O[C@H]3[C@H](O)[C@@H](O)[C@@H](O[C@H]4[C@H](O)[C@@H](O)[C@@H](O[C@H]5[C@H](O)[C@@H](O)[C@@H](O[C@H]6[C@H](O)[C@@H](O)C(O)O[C@@H]6CO)O[C@@H]5CO)O[C@@H]4CO)O[C@@H]3CO)O[C@@H]2CO)[C@H](O)[C@@H](O)[C@@H]1O` (some centres unmarked) [maltohexaose] here?
The Kd was 7 mM.

Which “stabilization (change in Tm)” value ([1]; increasing concentration of oligosaccharide, negative control) does the source give for `OC[C@H]1O[C@H](O[C@H]2[C@H](O)[C@@H](O)C(O)O[C@@H]2CO)[C@H](O)[C@@H](O)[C@@H]1O` (some centres unmarked) [maltose] here?
Its value is “No stabilization”.

B1: CtCBM30-StGWD: chimera of Clostridium thermocellum CelJ CBM30 and StGWD dikinase domain (protein)
chain: MGHHHHHHMEQKLISEEDLTSASSASAETVAPEGYRKLLDVQIFKDSPVVGWSGSGMGELETIGDTLPVDTTVTYNGLPTLRLNVQTTVQSGWWISLLTLRGWNTHDLSQYVENGYLEFDIKGKEGGEDFVIGFRDKVYERVYGLEIDVTTVISNYVTVTTDWQHVKIPLRDLMKINNGFDPSSVTCLVFSKRYADPFTVWFSDIKITSEDNEKSAPAIKVGVQINPVSGLPSGFQDLLHFVLDHVEDKNVETLLERLLEAREELRPLLLKPNNRLKDLLFLDIALDSTVRTAVERGYEELNNANPEKIMYFISLVLENLALSVDDNEDLVYCLKGWNQALSMSNGGDNHWALFAKAVLDRTRLALASKAEWYHHLLQPSAEYLGSILGVDQWALNIFTEEIIRAGSAASLSSLLNRLDPVLRKTANLGSWQIISPVEAVGYVVVVDELLSVQNEIYEKPTILVAKSVKGEEEIPDGAVALITPDMPDVLSHVSVRARNGKVCFATCFDPNILADLQAKEGRILLLKPTPSDIIYSEVNEIELQSSSNLVEAETSATLRLVKKQFGGCYAISADEFTSEMVGAKSRNIAYLKGKVPSSVGIPTSVALPFGVFEKVLSDDINQGVAKELQILMKKLSEGDFSALGEIRTTVLDLSAPAQLVKELKEKMQGSGMPWPGDEGPKRWEQAWMAIKKVWASKWNERAYFSTRKVKLDHDYLCMAVLVQEIINADYAFVIHTTNPSSGDDSEIYAEVVRGLGETLVGAYPGRALSFICKKKDLNSPQVLGYPSKPIGLFIKRSIIFRSDSNGEDLEGYAGAGLYDSVPMDEEEKVVIDYSSDPLITDGNFRQTILSNIARAGHAIEELYGSPQDIEGVVRDGKIYVVQTRPQM
modifications: Chimeric Protein
notes: chimera of Clostridium thermocellum CelJ CBM30 and StGWD dikinase domain
Which phosphorylation of cellulose [2] does the source give for B1 here?
The phosphorylation of cellulose was “robustly phosphorylated cellulose”.

B2: St-GWD: full length Solanum tuberosum glucan, water dikinase, amino acids 1-1464 (protein, listed as Solanum tuberosum)
chain: MSNSLGNNLLYQGFLTSTVLEHKSRISPPCVGGNSLFQQQVISKSPLSTEFRGNRLKVQKKKIPMEKKRAFSSSPHAVLTTDTSSELAEKFSLGGNIELQVDVRPPTSGDVSFVDFQVTNGSDKLFLHWGAVKFGKETWSLPNDRPDGTKVYKNKALRTPFVKSGSNSILRLEIRDTAIEAIEFLIYDEAHDKWIKNNGGNFRVKLSRKEIRGPDVSVPEELVQIQSYLRWERKGKQNYPPEKEKEEYEAARTVLQEEIARGASIQDIRARLTKTNDKSQSKEEPLHVTKSDIPDDLAQAQAYIRWEKAGKPNYPPEKQIEELEEARRELQLELEKGITLDELRKTITKGEIKTKVEKHLKRSSFAVERIQRKKRDFGHLINKYTSSPAVQVQKVLEEPPALSKIKLYAKEKEEQIDDPILNKKIFKVDDGELLVLVAKSSGKTKVHLATDLNQPITLHWALSKSPGEWMVPPSSILPPGSIILDKAAETPFSASSSDGLTSKVQSLDIVIEDGNFVGMPFVLLSGEKWIKNQGSDFYVGFSAASKLALKAAGDGSGTAKSLLDKIADMESEAQKSFMHRFNIAADLIEDATSAGELGFAGILVWMRFMATRQLIWNKNYNVKPREISKAQDRLTDLLQNAFTSHPQYREILRMIMSTVGRGGEGDVGQRIRDEILVIQRNNDCKGGMMQEWHQKLHNNTSPDDVVICQALIDYKSDFDLGVYWKTLNENGITKERLLSYDRAIHSEPNFRGDQKGGLLRDLGHYMRTLKAVHSGADLESAIANCMGYKTEGEGFMVGVQINPVSGLPSGFQDLLHFVLDHVEDKNVETLLERLLEAREELRPLLLKPNNRLKDLLFLDIALDSTVRTAVERGYEELNNANPEKIMYFISLVLENLALSVDDNEDLVYCLKGWNQALSMSNGGDNHWALFAKAVLDRTRLALASKAEWYHHLLQPSAEYLGSILGVDQWALNIFTEEIIRAGSAASLSSLLNRLDPVLRKTANLGSWQIISPVEAVGYVVVVDELLSVQNEIYEKPTILVAKSVKGEEEIPDGAVALITPDMPDVLSHVSVRARNGKVCFATCFDPNILADLQAKEGRILLLKPTPSDIIYSEVNEIELQSSSNLVEAETSATLRLVKKQFGGCYAISADEFTSEMVGAKSRNIAYLKGKVPSSVGIPTSVALPFGVFEKVLSDDINQGVAKELQILMKKLSEGDFSALGEIRTTVLDLSAPAQLVKELKEKMQGSGMPWPGDEGPKRWEQAWMAIKKVWASKWNERAYFSTRKVKLDHDYLCMAVLVQEIINADYAFVIHTTNPSSGDDSEIYAEVVRGLGETLVGAYPGRALSFICKKKDLNSPQVLGYPSKPIGLFIKRSIIFRSDSNGEDLEGYAGAGLYDSVPMDEEEKVVIDYSSDPLITDGNFRQTILSNIARAGHAIEELYGSPQDIEGVVRDGKIYVVQTRPQM
For B2, which “effect on glucose release when added to amylases” value [3] is on record?
Its value is “almost doubled”.

And the “time the protein was stable” value [4]?
Its value is greater than 1 WEEK.
